{"source": "paper PMC10397247", "experiment_in_all_cases": "two-hybrid library CCNG1;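 also: natural log of median RNA to DNA barcode read ratio; higher means stronger binding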", "key": {"4H496-bN": {"target": "T1, 4H496-bN", "T1 chain": "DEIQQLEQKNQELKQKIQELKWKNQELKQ"}, "4H3354-bH": {"target": "T2, 4H3354-bH", "T2 chain": "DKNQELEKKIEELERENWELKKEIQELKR"}, "4H338-bH": {"target": "T3, 4H338-bH", "T3 chain": "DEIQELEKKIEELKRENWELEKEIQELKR"}, "4H3427-bH": {"target": "T4, 4H3427-bH", "T4 chain": "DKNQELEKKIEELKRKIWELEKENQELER"}, "4H3782-bH": {"target": "T5, 4H3782-bH", "T5 chain": "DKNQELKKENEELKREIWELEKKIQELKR"}, "4H3855-bH": {"target": "T6, 4H3855-bH", "T6 chain": "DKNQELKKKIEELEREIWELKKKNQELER"}, "4H4001-bH": {"target": "T7, 4H4001-bH", "T7 chain": "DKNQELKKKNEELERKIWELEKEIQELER"}, "4H454-bH": {"target": "T8, 4H454-bH", "T8 chain": "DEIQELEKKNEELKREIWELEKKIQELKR"}, "4H568-bH": {"target": "T9, 4H568-bH", "T9 chain": "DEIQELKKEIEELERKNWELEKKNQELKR"}, "4H607-bH": {"target": "T10, 4H607-bH", "T10 chain": "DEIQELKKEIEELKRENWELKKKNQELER"}, "4H687-bH": {"target": "T11, 4H687-bH", "T11 chain": "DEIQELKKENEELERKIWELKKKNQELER"}, "4H717-bH": {"target": "T12, 4H717-bH", "T12 chain": "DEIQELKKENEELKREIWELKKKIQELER"}, "4H72-bH": {"target": "T13, 4H72-bH", "T13 chain": "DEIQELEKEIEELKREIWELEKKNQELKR"}, "4H754-bH": {"target": "T14, 4H754-bH", "T14 chain": "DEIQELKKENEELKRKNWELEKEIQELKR"}, "4H797-bH": {"target": "T15, 4H797-bH", "T15 chain": "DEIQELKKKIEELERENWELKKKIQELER"}, "4H883-bH": {"target": "T16, 4H883-bH", "T16 chain": "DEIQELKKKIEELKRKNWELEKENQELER"}, "4H908-bH": {"target": "T17, 4H908-bH", "T17 chain": "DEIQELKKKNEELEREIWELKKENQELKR"}, "4H918-bH": {"target": "T18, 4H918-bH", "T18 chain": "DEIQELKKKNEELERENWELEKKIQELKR"}, "4H953-bH": {"target": "T19, 4H953-bH", "T19 chain": "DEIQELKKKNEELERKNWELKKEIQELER"}, "4H967-bH": {"target": "T20, 4H967-bH", "T20 chain": "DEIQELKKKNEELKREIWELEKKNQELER"}, "P6SHb": {"target": "T21, P6SHb", "T21 chain": "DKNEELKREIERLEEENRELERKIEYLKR"}, "P7SHb": {"target": "T22, P7SHb", "T22 chain": "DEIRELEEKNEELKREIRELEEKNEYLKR"}, "P8SHb": {"target": "T23, P8SHb", "T23 chain": "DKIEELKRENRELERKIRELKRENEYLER"}, "P9SHb": {"target": "T24, P9SHb", "T24 chain": "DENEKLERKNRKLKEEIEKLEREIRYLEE"}}, "data": [{"binder": "DEIQQLEQKNQELKQKIQELKWKNQELKQ", "note": "[4H496-bN]", "values": [{"measurement": "interaction score", "setting": "4H496-bN", "value": -0.0824}]}, {"binder": "DKNQELEKKIEELERENWELKKEIQELKR", "note": "[4H3354-bH]", "values": [{"measurement": "interaction score", "setting": "4H3354-bH", "value": 1.31}, {"measurement": "interaction score", "setting": "4H338-bH", "value": 0.838}, {"measurement": "interaction score", "setting": "4H3427-bH", "value": 0.568}, {"measurement": "interaction score", "setting": "4H3782-bH", "value": -0.062}, {"measurement": "interaction score", "setting": "4H3855-bH", "value": -0.383}, {"measurement": "interaction score", "setting": "4H4001-bH", "value": -0.37}, {"measurement": "interaction score", "setting": "4H454-bH", "value": 0.274}, {"measurement": "interaction score", "setting": "4H496-bN", "value": 0.755}, {"measurement": "interaction score", "setting": "4H568-bH", "value": -1.08}, {"measurement": "interaction score", "setting": "4H607-bH", "value": -1.77}, {"measurement": "interaction score", "setting": "4H687-bH", "value": -2.6}, {"measurement": "interaction score", "setting": "4H717-bH", "value": 0.648}, {"measurement": "interaction score", "setting": "4H72-bH", "value": -1.11}, {"measurement": "interaction score", "setting": "4H754-bH", "value": -0.2}, {"measurement": "interaction score", "setting": "4H797-bH", "value": 0.357}, {"measurement": "interaction score", "setting": "4H883-bH", "value": -0.344}, {"measurement": "interaction score", "setting": "4H908-bH", "value": -1.61}, {"measurement": "interaction score", "setting": "4H918-bH", "value": 0.89}, {"measurement": "interaction score", "setting": "4H953-bH", "value": -1.49}, {"measurement": "interaction score", "setting": "4H967-bH", "value": -0.105}]}, {"binder": "DKNEELKREIERLEEENRELERKIEYLKR", "note": "[P6SHb]", "values": [{"measurement": "interaction score", "setting": "P6SHb", "value": 0.147}, {"measurement": "interaction score", "setting": "P7SHb", "value": 0.946}, {"measurement": "interaction score", "setting": "P8SHb", "value": 0.342}, {"measurement": "interaction score", "setting": "P9SHb", "value": 0.769}]}]}
